Biological target: HEG1–KRIT1 interaction (EGFP‐KRIT1 FERM domain binding to HEG1 cytoplasmic tail on beads) (Homo sapiens, UniProt O00522)
Test: Flow cytometry bead assay for the HEG1–KRIT1 FERM domain interaction
Conditions: bead assay, compared with wild‐type KRIT1

Sequence of HEG1–KRIT1 interaction (EGFP‐KRIT1 FERM domain binding to HEG1 cytoplasmic tail on beads) (O00522 417-736): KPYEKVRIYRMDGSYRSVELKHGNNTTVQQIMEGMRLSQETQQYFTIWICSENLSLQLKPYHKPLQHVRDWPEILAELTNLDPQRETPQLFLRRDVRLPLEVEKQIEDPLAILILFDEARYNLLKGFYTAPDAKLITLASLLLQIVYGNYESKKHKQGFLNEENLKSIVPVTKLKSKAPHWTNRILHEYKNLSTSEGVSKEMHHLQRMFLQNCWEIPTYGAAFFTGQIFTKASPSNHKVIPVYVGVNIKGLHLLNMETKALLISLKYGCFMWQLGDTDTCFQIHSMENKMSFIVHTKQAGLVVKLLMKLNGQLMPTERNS

B1: KRIT1 (L717,721A) mutant: EGFP‐KRIT1 FERM domain mutant with reduced affinity for HEG1 (protein)
chain: KPYEKVRIYRMDGSYRSVELKHGNNTTVQQIMEGMRLSQETQQYFTIWICSENLSLQLKPYHKPLQHVRDWPEILAELTNLDPQRETPQLFLRRDVRLPLEVEKQIEDPLAILILFDEARYNLLKGFYTAPDAKLITLASLLLQIVYGNYESKKHKQGFLNEENLKSIVPVTKLKSKAPHWTNRILHEYKNLSTSEGVSKEMHHLQRMFLQNCWEIPTYGAAFFTGQIFTKASPSNHKVIPVYVGVNIKGLHLLNMETKALLISLKYGCFMWQLGDTDTCFQIHSMENKMSFIVHTKQAGAVVKALMKLNGQLMPTERNS
modifications: left off: His6, N-terminal, state not stated | EGFP, N-terminal, kept
binding to HEG1: dramatic reduction in binding
